The target of this experiment is glucagon receptor (GCGR). Nature of the experiment: cell-based or functional assay.

Regarding dasiglucagon (Zealand Pharma) (peptide), the EC50, cell-based cyclic AMP (cAMP) activity assay is 1.04 nM.

The values are drawn from US20240116999A1, “CONFORMATIONALLY CONSTRAINED GLUCAGON ANALOGUES AND THEIR USE IN GLUCAGON-SINGLE CHAIN INSULIN FUSION PROTEINS” (THE TRUSTEES OF INDIANA UNIVERSITY, priority 2021, published 2024).
